Source: patent US9926369B2, “Methods for treating hepatocellular cancer by administering an anti-Ang-2 antibody” (Regeneron Pharmaceuticals, Inc., priority 2009, dated 2018)
pKd: −log10 of the molar value.

Key:
Dimeric Monkey Ang-2FD = test: Surface plasmon resonance binding to dimeric monkey Ang-2FD conjugated to human IgG1; set-up: species or system Macca fascicularis; settings: SPR, room temperature
Method: Equilibrium dissociation constants (KD values) for the binding of selected purified Ang-2 antibodies to dimeric fibrinogen-like domain of human (SEQ ID NO: 519), mouse (Mus musculus; SEQ ID NO: 520) and monkey (Macca fascicularis; SEQ ID NO: 521) Ang-2 (Ang-2FD) conjugated to human IgG1 (SEQ ID NO:528) were determined by surface kinetics using a real-time biosensor surface plasmon resonance assay. Antibody was captured on a goat anti-mouse IgG polyclonal antibody surface, a goat anti-human κ polyclonal antibody (Southern Biotech, Birmingham, Ala.) surface or a goat anti-human IgG polyclonal antibody (Jackson Immuno Research Lab, West Grove, Pa.) surface created through direct amine coupling to a BIACORE™ CM5 sensor chip to form a captured antibody surface. Varying concentrations (ranging from 50 nM to 6.25 nM) of protein were injected at 100 μl/min over captured antibody surface for 90 seconds. Antigen-antibody binding and dissociation were monitored in real time at room temperature. Kinetic analysis was performed to calculate KD and half-life of antigen/antibody complex dissociation.
The above experiment was repeated using selected purified anti-Ang-2 antibodies cloned onto human IgG1.

[1] = target: Dimeric Human Ang-2FD-mFc (Homo sapiens, UniProt O15123); test: Cross-species SPR binding at 25° C. or 37° C., human Ang-2FD-mFc
Method: Additional binding experiments were conducted using selected anti-Ang-2 antibodies at two different temperatures to further assess cross-species affinity. Each selected antibody or control construct was captured at a flow rate of 40 μL/min for 1 minute on a goat anti-human kappa polyclonal antibody surface created through direct chemical coupling to a BIACORE™ chip to form a captured antibody surface. Human, monkey and mouse Ang-2FD-Fc at a concentration of 25 nM or 0.78 nM was injected over the captured antibody surface at a flowrate of 60 μL/min for 3 minutes, and antigen-antibody dissociation was monitored in real time for 20 minutes at either 25° C. or 37° C.

[2] = target: T1, hAng-2-WT binding to hTie-2-mFc (Homo sapiens, UniProt O15123); test: Biosensor SPR blocking of hAng-2-WT binding to hTie-2-mFc-ecto surface; type: biochemical; settings: 25 nM hAng-2-WT
T1 sequence (O15123 19-496): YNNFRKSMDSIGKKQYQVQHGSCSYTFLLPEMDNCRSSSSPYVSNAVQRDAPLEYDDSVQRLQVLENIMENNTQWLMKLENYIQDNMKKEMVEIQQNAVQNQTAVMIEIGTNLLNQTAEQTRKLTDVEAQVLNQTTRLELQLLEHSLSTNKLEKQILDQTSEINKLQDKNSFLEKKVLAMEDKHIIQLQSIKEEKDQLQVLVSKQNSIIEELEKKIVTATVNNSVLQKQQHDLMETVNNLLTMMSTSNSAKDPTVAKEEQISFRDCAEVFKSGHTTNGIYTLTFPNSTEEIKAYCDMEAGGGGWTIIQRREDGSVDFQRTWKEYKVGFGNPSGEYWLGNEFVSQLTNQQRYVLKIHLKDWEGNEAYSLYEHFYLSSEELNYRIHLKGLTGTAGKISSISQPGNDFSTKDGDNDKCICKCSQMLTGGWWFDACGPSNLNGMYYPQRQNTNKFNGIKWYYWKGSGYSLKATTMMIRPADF
Method: The foregoing experiment was repeated using different amounts of Ang-2 blockers and controls. In particular, a human Tie-2 full-length extracellular domain construct (hTie-2-mFc-ecto) was amine-coupled on a BIACORE™ chip to create a receptor-coated surface. Selected anti-hAng-2 antibodies and control constructs (50 or 150 nM) were mixed with hAng-2-WT (25 nM) followed by 60 minutes incubation at 25° C. to allow antibody-antigen binding to reach equilibrium. The equilibrated solutions were injected over the receptor surfaces at 10 μL/min for 5 minutes at 25° C. To evaluate the ability of the selected anti-hAng-2 antibodies to block Ang-1-WT binding to hTie-2, a similar procedure was followed except the antibodies were tested at three concentrations (50, 100 or 1000 nM) and incubated with 10 nM of hAng-1-WT. Changes in resonance units (RU) due to the binding of the Ang-2-WT or hAng-1-WT to hTie-2-mFc were determined. An irrelevant antibody with no binding to either angiopoietin was included in these experiments to establish the 0% blocking baseline, and a human Tie-2-mFc construct was used as a positive control for blocking. Results are summarized in Tables 21 (hAng-1 applied to a hTie-2 surface) and 22 (hAng-2 applied to a hTie-2 surface).

MMT tumors = test: MMT tumor growth in SCID mice; type: in vivo; settings: H1H685P 12.5 mg/kg, VEGF Trap 5 mg/kg
Method: To provide additional evidence of combination efficacy, the effect of the H1H685P+VEGF Trap combination on the growth of MMT tumors was assessed. 0.5×10^6 MMT cells were implanted subcutaneously into the right hind flank of 6-8 week-old female SCID mice. […] The Fc and H1H685P groups were given 3 doses over 9 days. The VEGF Trap and combination groups were given 4 doses over 12 days. Tumor volumes were measured twice per week over the course of the experiment and tumor weights were measured upon excision of tumors at the end of the experiment (due to their large size, tumors from the Fc and H1H685P groups were collected 3 days before tumors from the VEGF Trap and combination groups). Averages (mean+/−standard deviation) of tumor growth from the beginning of treatment and of tumor weight were calculated for each group. Percent decrease of tumor weight and growth are calculated from comparison to the Fc control group.

Chain of Dimeric Human Ang-2FD-mFc (O15123 with tags, fused parts or gaps): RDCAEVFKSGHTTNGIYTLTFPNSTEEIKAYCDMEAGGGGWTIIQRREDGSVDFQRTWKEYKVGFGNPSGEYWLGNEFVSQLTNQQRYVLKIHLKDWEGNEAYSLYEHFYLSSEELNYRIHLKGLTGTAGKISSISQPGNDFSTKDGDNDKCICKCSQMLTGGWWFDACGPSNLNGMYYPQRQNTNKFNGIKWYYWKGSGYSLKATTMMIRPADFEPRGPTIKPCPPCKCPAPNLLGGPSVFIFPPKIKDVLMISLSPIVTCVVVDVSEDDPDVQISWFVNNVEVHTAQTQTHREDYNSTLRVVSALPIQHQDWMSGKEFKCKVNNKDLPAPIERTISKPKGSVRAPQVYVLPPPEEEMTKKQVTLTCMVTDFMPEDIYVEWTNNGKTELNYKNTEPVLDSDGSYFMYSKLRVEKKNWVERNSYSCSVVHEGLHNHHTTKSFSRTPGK
Chain of Dimeric Monkey Ang-2FD (as listed by the source): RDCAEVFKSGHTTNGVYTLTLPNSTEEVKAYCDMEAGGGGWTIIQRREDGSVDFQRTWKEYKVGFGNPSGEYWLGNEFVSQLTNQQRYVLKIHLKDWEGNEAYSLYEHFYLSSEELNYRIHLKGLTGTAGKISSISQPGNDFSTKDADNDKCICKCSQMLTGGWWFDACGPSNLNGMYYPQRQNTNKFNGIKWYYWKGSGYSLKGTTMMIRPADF

## H1H685P: human anti-Ang-2 antibody, HCVR/LCVR SEQ ID NOs 18/20; also referred to as mAb1 [Antibody H1H685P]
Dimeric Monkey Ang-2FD
  pKd: 10.00
[1]; 25° C.
  pKd: 10.93
[1]; 37° C.
  pKd: 10.57
[2]; 50 nM antibody or control
  Percent of Neg. Ctrl Binding (hAng-2 WT): 4.3%
  Specific Bound RU (hAng-2 WT): 12 RU
[2]; 150 nM antibody or control
  Percent of Neg. Ctrl Binding (hAng-2 WT): 4.3%
  Specific Bound RU (hAng-2 WT): 12 RU
MMT tumors
  % Decrease in Tumor Growth: 15%
  % Decrease in Tumor Weight: 11%
  Avg Tumor Growth: 1135 ± 306 mm^3
  Avg Tumor Weight: 1.409 ± 0.314 g
